The term Kd denotes the equilibrium constant for the complex coming apart. Low values mean higher affinity, high ones lower affinity.

The experiment has as its target T1, soluble human CD3ε chain (human, UniProt P07766 23-126, limits assumed).
T1 construct: the text says soluble human CD3ε chain; also called human CD3 epsilon chain
The experiment can be described thus: SPR (Biacore).

T1 sequence (P07766 23-126 limits assumed): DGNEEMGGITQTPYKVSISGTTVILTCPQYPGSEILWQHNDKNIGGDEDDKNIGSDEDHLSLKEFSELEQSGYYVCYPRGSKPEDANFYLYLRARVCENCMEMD

B1: TR01H082-E22Hh/none-Hi-Kn010G3/L0263-k0 (antibody, human IgG1, kappa, L234A L235A, N297A)
heavy: QVQLVESGGGLVQPGRSLRLSCAASGFTFSNAWMHWVRQAPGKGLEWVAQIKDKSQNYATYYAESVKGRFTISRDDSKNSLYLQMNSLKTEDTAVYYCRYVHYAAGYGVDAWGQGTTVTVSSASTKGPSVFPLAPSSKSTSGGTAALGCLVKDYFPEPVTVSWNSGALTSGVHTFPAVLQSSGLYSLSSVVTVPSSSLGTQTYICNVNHKPSNTKVDKKVEPKSCDKTHTCPPCPAPEAAGGPSVFLFPPKPKDTLMISRTPEVTCVVVDVSHEDPEVKFNWYVDGVEVHNAKTKPREEQYASTYRVVSVLTVLHQDWLNGKEYKCKVSNKALPAPIEKTISKAKGQPREPQVYTLPPSRCELTKNQVSLSCAVKGFYPSDIAVEWESNGQPENNYKTTPPVLDSDGSFFLVSKLTVDKSRWQQGNVFSCSVMHEALHNHYTQKSLSLSPDYKDDDDK
chain: EPKSSDKTHTCPPCPAPELLGGPSVFLFPPKPKDTLMISRTPEVTCVVVDVSHEDPEVKFNWYVDGVEVHNAKTKPREEQYNSTYRVVSVLTVLHQDWLNGKEYKCKVSNKALPAPIEKTISKAKGQPREPQVCTLPPSRDELTKNQVSLWCLVKGFYPSDIAVEWESNGQPENNYKTTPPVLDSDGSFFLYSKLTVDKSRWQQGNVFSCSVMHEALHNRYTQKSLSLSP
light: DIVMTQSPLSLPVTPGEPASISCRSSQSPVHSNRNTYIHWYQQKPGQAPRLLIYKVSNRFSGVPDRFSGSGSGTDFTLKISRVEAEDVGVYYCAQGTQVPYTFGQGTKLEIKRTVAAPSVFIFPPSDEQLKSGTASVVCLLNNFYPREAKVQWKVDNALQSGNSQESVTEQDSKDSTYSLSSTLTLSKADYEKHKVYACEVTHQGLSSPVTKSFNRGEC
notes: single-arm
In turn, B1 displayed a Kd of 30.9 nM.

B2: TR01H082-E22Hh/none-Hi-Kn010G3/L0264-k0 (antibody, human IgG1, kappa, L234A L235A, N297A)
heavy: QVQLVESGGGLVQPGRSLRLSCAASGFTFSNAWMHWVRQAPGKGLEWVAQIKDKSQNYATYYAESVKGRFTISRDDSKNSLYLQMNSLKTEDTAVYYCRYVHYAAGYGVDAWGQGTTVTVSSASTKGPSVFPLAPSSKSTSGGTAALGCLVKDYFPEPVTVSWNSGALTSGVHTFPAVLQSSGLYSLSSVVTVPSSSLGTQTYICNVNHKPSNTKVDKKVEPKSCDKTHTCPPCPAPEAAGGPSVFLFPPKPKDTLMISRTPEVTCVVVDVSHEDPEVKFNWYVDGVEVHNAKTKPREEQYASTYRVVSVLTVLHQDWLNGKEYKCKVSNKALPAPIEKTISKAKGQPREPQVYTLPPSRCELTKNQVSLSCAVKGFYPSDIAVEWESNGQPENNYKTTPPVLDSDGSFFLVSKLTVDKSRWQQGNVFSCSVMHEALHNHYTQKSLSLSPDYKDDDDK
chain: EPKSSDKTHTCPPCPAPELLGGPSVFLFPPKPKDTLMISRTPEVTCVVVDVSHEDPEVKFNWYVDGVEVHNAKTKPREEQYNSTYRVVSVLTVLHQDWLNGKEYKCKVSNKALPAPIEKTISKAKGQPREPQVCTLPPSRDELTKNQVSLWCLVKGFYPSDIAVEWESNGQPENNYKTTPPVLDSDGSFFLYSKLTVDKSRWQQGNVFSCSVMHEALHNRYTQKSLSLSP
light: DIVMTQSPLSLPVTPGEPASISCRPSQSPVHSNRNTYLHWYQQKPGQAPRLLIYKVSNRFSGVPDRFSGSGSGTDFTLKISRVEAEDVGVYYCAQGTQVPYTFGQGTKLEIKRTVAAPSVFIFPPSDEQLKSGTASVVCLLNNFYPREAKVQWKVDNALQSGNSQESVTEQDSKDSTYSLSSTLTLSKADYEKHKVYACEVTHQGLSSPVTKSFNRGEC
notes: single-arm
B2 came in with a dissociation constant Kd of 34.4 nM.

B3: TR01H082-E22Hh/none-Hi-Kn010G3/L0266-k0 (antibody, human IgG1, kappa, L234A L235A, N297A)
heavy: QVQLVESGGGLVQPGRSLRLSCAASGFTFSNAWMHWVRQAPGKGLEWVAQIKDKSQNYATYYAESVKGRFTISRDDSKNSLYLQMNSLKTEDTAVYYCRYVHYAAGYGVDAWGQGTTVTVSSASTKGPSVFPLAPSSKSTSGGTAALGCLVKDYFPEPVTVSWNSGALTSGVHTFPAVLQSSGLYSLSSVVTVPSSSLGTQTYICNVNHKPSNTKVDKKVEPKSCDKTHTCPPCPAPEAAGGPSVFLFPPKPKDTLMISRTPEVTCVVVDVSHEDPEVKFNWYVDGVEVHNAKTKPREEQYASTYRVVSVLTVLHQDWLNGKEYKCKVSNKALPAPIEKTISKAKGQPREPQVYTLPPSRCELTKNQVSLSCAVKGFYPSDIAVEWESNGQPENNYKTTPPVLDSDGSFFLVSKLTVDKSRWQQGNVFSCSVMHEALHNHYTQKSLSLSPDYKDDDDK
chain: EPKSSDKTHTCPPCPAPELLGGPSVFLFPPKPKDTLMISRTPEVTCVVVDVSHEDPEVKFNWYVDGVEVHNAKTKPREEQYNSTYRVVSVLTVLHQDWLNGKEYKCKVSNKALPAPIEKTISKAKGQPREPQVCTLPPSRDELTKNQVSLWCLVKGFYPSDIAVEWESNGQPENNYKTTPPVLDSDGSFFLYSKLTVDKSRWQQGNVFSCSVMHEALHNRYTQKSLSLSP
light: DIVMTQSPLSLPVTPGEPASISCRSSQPPVHSNRNTYLHWYQQKPGQAPRLLIYKVSNRFSGVPDRFSGSGSGTDFTLKISRVEAEDVGVYYCVQGTQVPYTFGQGTKLEIKRTVAAPSVFIFPPSDEQLKSGTASVVCLLNNFYPREAKVQWKVDNALQSGNSQESVTEQDSKDSTYSLSSTLTLSKADYEKHKVYACEVTHQGLSSPVTKSFNRGEC
notes: single-arm
Regarding B3, the Kd turned out to be 22.9 nM.

B4: TR01H082-E22Hh/none-Hi-Kn010G3/L0267-k0 (antibody, human IgG1, kappa, L234A L235A, N297A)
heavy: QVQLVESGGGLVQPGRSLRLSCAASGFTFSNAWMHWVRQAPGKGLEWVAQIKDKSQNYATYYAESVKGRFTISRDDSKNSLYLQMNSLKTEDTAVYYCRYVHYAAGYGVDAWGQGTTVTVSSASTKGPSVFPLAPSSKSTSGGTAALGCLVKDYFPEPVTVSWNSGALTSGVHTFPAVLQSSGLYSLSSVVTVPSSSLGTQTYICNVNHKPSNTKVDKKVEPKSCDKTHTCPPCPAPEAAGGPSVFLFPPKPKDTLMISRTPEVTCVVVDVSHEDPEVKFNWYVDGVEVHNAKTKPREEQYASTYRVVSVLTVLHQDWLNGKEYKCKVSNKALPAPIEKTISKAKGQPREPQVYTLPPSRCELTKNQVSLSCAVKGFYPSDIAVEWESNGQPENNYKTTPPVLDSDGSFFLVSKLTVDKSRWQQGNVFSCSVMHEALHNHYTQKSLSLSPDYKDDDDK
chain: EPKSSDKTHTCPPCPAPELLGGPSVFLFPPKPKDTLMISRTPEVTCVVVDVSHEDPEVKFNWYVDGVEVHNAKTKPREEQYNSTYRVVSVLTVLHQDWLNGKEYKCKVSNKALPAPIEKTISKAKGQPREPQVCTLPPSRDELTKNQVSLWCLVKGFYPSDIAVEWESNGQPENNYKTTPPVLDSDGSFFLYSKLTVDKSRWQQGNVFSCSVMHEALHNRYTQKSLSLSP
light: DIVMTQSPLSLPVTPGEPASISCRPSQSPVHSNRNTYLHWYQQKPGQAPRLLIYKVSNRFSGVPDRFSGSGSGTDFTLKISRVEAEDVGVYYCVQGTQVPYTFGQGTKLEIKRTVAAPSVFIFPPSDEQLKSGTASVVCLLNNFYPREAKVQWKVDNALQSGNSQESVTEQDSKDSTYSLSSTLTLSKADYEKHKVYACEVTHQGLSSPVTKSFNRGEC
notes: single-arm
Turning to B4, the Kd came to 22.9 nM.
